In the DeepSol protein solubility set:

Assay: soluble on expression in E. coli; label from the status in PepcDB or PDB records

Sequence | soluble on expression in E. coli
MKIYIEGYGCTLNTADTQIIKNSVNEFEDFELTDNVDDSDIIVINTCIVRQETEHRMISRIEYFKSLDKKVVVAGCMAKALSKKIENLADVLIMPREAQHSGNILKDKLLKDFSEKNNESTQNLNFEDKLNEKIKKVSSQGLITALPICEGCLGSCTYCIVKRARGNLASYDRDLIVKKAEELVKSGTKCLLVTAQDTACYGLDNNDSLPNLINDISEIPEKFAMRIGMMHAKFAEPILDELIESFKSEKVVKFLHLPIQSGDDQVLKDMNRNYTVDEYISVLNEFKSKIKNLNFTTDVIVGFPTETEEAFENTLEIVKKIKPDFTHAAKYSQRKYTKAAILKQVDTKIRKERSEILNELRRELSYENNKRHIGETFEILVTKDNMGVTDNCKNVIFEEPAKIGEFKRVKITGAKTFGLSGKLINLEHHHHHH | soluble
MKKEHLKFVIDSRCFRGSCVTSMSDGIHCDYYGSTLEELKKQENNPFLVAVTRNAIHKRSRIHDKSLCRPFREITEENYYNCMNELPPVRLKHHSFFFGEPYHGSLYMFCFTIGKRFFRGLRPVMTPQAELERQMNEHYHNITFKGKVTKGKAERITSKDKQEIITIPYSFTDKENRERFICNMVTGGNDGGDTCKARKDMTNILLSLRKHHFLYFSGYGRHDDMETLLDEVEEKRYTIITSGCLFQFPPCRDSVSFTGSVKETGENFFYRIYDRELFLHIMHRLRAVKREKTPAEAKAVLPKCKCYE | not soluble
MKKFDGVIFDMDGLLFDTELIYYTSTQKVADAMGLPYSKEVYLDYVGISDEEVQENYRRIYASYGHDTVEEFIRRSYDDTLQEFRSGNVPLKPGVVEFLDFLDDQKIPRLVASSNVRPAIEMLLSHAGIQDRFVGIVSAEDVKRAKPDPEIFQKARQLLGTEAPKTLIFEDSFHGVSAAHSAGIPVIMVPDLLQPTEVIQEKTLHVLESLHQAPHYLK | not soluble
MKKHDGIIVLLSGGMDSATLLWLAKREFKKVYAISFDYGQRHKVELKYAKELAKLAEVEDHFIVQVPFYTSLKGSALIDESVEVPKGEYPENEPPVTTVPMRNLIFLSIASAFADNLEVNYIGIGVHALDTPYPDCRPEFITAAEAAINAGSTFVAKKKERMHVYAPFLGMSKRDIALLGKELGVPFEKTYSCYMGTEPPCGECPTCIQREEALRGIL | soluble
MKKHHHHHHEDFHGIDIVINHRLKTSLEEGKVLEKTVPDLNNCKENYEFLIKWTDESHLHNTWETYESIGQVRGLKRLDNYCKQFIIEDQQVRLDPYVTAEDIEIMDMERERRLDEFEEFHVPERIIDSQRASLEDGTSQLQYLVKWRRLNYDEATWENATDIVKLAPEQVKHFQKK | soluble
MKKIEIFDPAMCCPTGLCGTNINPELMRIAVVIESLKKQGIIVTRHNLRDEPQVYVSNKTVNDFLQKHGADALPITLVDGEIAVSQTYPTTKQMSEWTGVNLD | soluble
MKKLKVMTVFGTRPEAIKMAPLVLELKKYPEIDSYVTVTAQHRQMLDQVLDAFHIKPDFDLNIMKERQTLAEITSNALVRLDELFKDIKPDIVLVHGDTTTTFAGSLAAFYHQIAVGHVEAGLRTGNKYSPFPEELNRQMTGAIADLHFAPTGQAKDNLLKENKKADSIFVTGNTAIDALNTTVRDGYSHPVLDQVGEDKMILLTAHRRENLGEPMENMFKAIRRIVGEFEDVQVVYPVHLNPVVREAAHKHFGDSDRVHLIEPLEVIDFHNFAAKSHFILTDSGGVQEEAPSLGKPVLVLRDTTERPEGVEAGTLKLAGTDEENIYQLAKQLLTDPDEYKKMSQASNPYGDGEASRRIVEELLFHYGYRKEQPDSFTGKGSHHHHHH | soluble
MKKLSGIIVLLLAGAALYLALKTSPIDPLAWDAPAAPQMTGVLEPNDTLMKAELLGQGQLHGPEDTAVDSQGRVYAGLADGRVVRLDASGKVETFVDTGGRPLGMDFDAAGNLILADAWKGLLRIDPQGKVETLATEADSVPFAFTDDLDIASDGRIYFSDASSKFHQPDYILDLLEARPHGRLLRYDPSTGKTEVLLKDLYFANGVALSANEDFVLVNETYRYRITRYWLKGEKAGQHEVFIDNLPGLPDNLQGDRKGTFWVALPTPRKADADFLHRHPWLKAQLAKLPRMFLPKPTAYGLVIAIDEQGRIVRSLHDTSGHHLRMITSAKPVGDQLYFGSLENDRIGRLAIPLEHHHHHH | soluble
